± gives the uncertainty stated by the source.
B1: Triacylglycerol hydrolase DDHD2, residues 389 to 447; numbered along this chain, O94830 (parent)
chain: TLEEDLKKLQLSEFFDIFEKEKVDKEALALCTDRDLQEIGIPLGPRKKILNYFSTRKNS

Variants of: B1
Experiment: abundance fitness (aPCA) (normalised: wild type 0, dead -1); higher = more abundant; growth selection in yeast, the domain comes from the species named
Details: Homo sapiens
In the case of TLEEDLKKLQLSEFFDIFEKEKVDKEALALCTDRDLQEIGPPLGPRKKILNYFSTRKNS [I41P], the abundance fitness is reported as -0.417 ± 0.15. TLEEDLKKLQLSEFFDIFEKEKVDKEALALCTDRDLQEIGGPLGPRKKILNYFSTRKNS [I41G] showed an abundance fitness of -0.323 ± 0.068. TLEEDLKKLQLSEFFDIFEKEKVDKEALALCTDRDGQEIGIPLGPRKKILNYFSTRKNS [L36G] showed an abundance fitness of -0.322 ± 0.066. TLEEDLKKLQLSEFFDIFEKEKVDKEALALCTDRDIQEIGIPLGPRKKILNYFSTRKNS [L36I] showed an abundance fitness of -0.465 ± 0.11. In the case of TLEEDLKKLQLSEFFDIFEKEKVDKLALALCTDRDLQEIGIPLGPRKKILNYFSTRKNS [E26L], the abundance fitness is reported as -0.383 ± 0.071. In the case of TLEEDLKKLQLSEFFDIFEKEKVDKNALALCTDRDLQEIGIPLGPRKKILNYFSTRKNS [E26N], the abundance fitness is reported as -0.109 ± 0.15. TLEEDLKKLQLSEFFDIFEKEKVDKKALALCTDRDLQEIGIPLGPRKKILNYFSTRKNS [E26K] gave an abundance fitness of 0.481 ± 0.088. For TLEEDLKKLQLSEFFDIFEKEKVDKEALALCNDRDLQEIGIPLGPRKKILNYFSTRKNS [T32N], the abundance fitness was -0.217 ± 0.13. With TLEEDLKKLQLSEFFDIFEKEKVDKEALALCYDRDLQEIGIPLGPRKKILNYFSTRKNS [T32Y] the abundance fitness was -0.388 ± 0.12. With TLEEDLKKLQLSEFFDIFEKEKVDKEALALCTDRDLQVIGIPLGPRKKILNYFSTRKNS [E38V] the abundance fitness was -0.036 ± 0.065. TLEEDLKKLQLSEFFDIFEGEKVDKEALALCTDRDLQEIGIPLGPRKKILNYFSTRKNS [K20G] gave an abundance fitness of -0.26 ± 0.12. Work on TLEEDLKKLQLSEFFDIFENEKVDKEALALCTDRDLQEIGIPLGPRKKILNYFSTRKNS [K20N] yielded an abundance fitness of -0.142 ± 0.14. Work on TLEEDLKKLQLSEFFDIFEMEKVDKEALALCTDRDLQEIGIPLGPRKKILNYFSTRKNS [K20M] yielded an abundance fitness of 0.081 ± 0.091. With TLEEDLKKLQLSEFFDIFEVEKVDKEALALCTDRDLQEIGIPLGPRKKILNYFSTRKNS [K20V] the abundance fitness was -0.432 ± 0.088. For TLEEDLKKLQLSEFFDIFEKEKVDKEALALCTDRDLQEIGIPLGPRKKILNYWSTRKNS [F53W], the abundance fitness was -0.38 ± 0.1. With TLEEDLKKLQLSEFFDIFEKEKVDKEALALCTDRDLQEIGIPLGPRKKILNYQSTRKNS [F53Q] the abundance fitness was -0.118 ± 0.12. Variant TLEEDLKKLQLSEFFDIFEKEKVDKEALALCTDRDLQEIGIPLGPRKKICNYFSTRKNS [L50C] has an abundance fitness of -0.215 ± 0.13. In the case of TLEEDLKKLQLSEFFDIFEKEKVDKEALALCTDRDLQEIGIPHGPRKKILNYFSTRKNS [L43H], the abundance fitness is reported as 0.519 ± 0.058. For TPEEDLKKLQLSEFFDIFEKEKVDKEALALCTDRDLQEIGIPLGPRKKILNYFSTRKNS [L2P], the abundance fitness was -0.748 ± 0.092. For TEEEDLKKLQLSEFFDIFEKEKVDKEALALCTDRDLQEIGIPLGPRKKILNYFSTRKNS [L2E], the abundance fitness was -0.2 ± 0.086. TDEEDLKKLQLSEFFDIFEKEKVDKEALALCTDRDLQEIGIPLGPRKKILNYFSTRKNS [L2D] gave an abundance fitness of -0.468 ± 0.13. TLEEDLKKLQKSEFFDIFEKEKVDKEALALCTDRDLQEIGIPLGPRKKILNYFSTRKNS [L11K] gave an abundance fitness of -1.14 ± 0.15. With TLEEDLKKLQTSEFFDIFEKEKVDKEALALCTDRDLQEIGIPLGPRKKILNYFSTRKNS [L11T] the abundance fitness was -0.871 ± 0.093. Work on TLEEDLKKLQLSEFFDIFEKEKVDKEALALCTDRDLQEIGISLGPRKKILNYFSTRKNS [P42S] yielded an abundance fitness of -0.493 ± 0.081. For TLEEDLKKLQLSEFFDIFEKEKVDKEALALCTDRDLQEIGIELGPRKKILNYFSTRKNS [P42E], the abundance fitness was -0.213 ± 0.072. For TLEEDLKKLQLSEFFDIFEKEKVDKEAGALCTDRDLQEIGIPLGPRKKILNYFSTRKNS [L28G], the abundance fitness was -0.386 ± 0.074. Variant TLEEDLKKLQLSEFFDIFEKEKVDKEAMALCTDRDLQEIGIPLGPRKKILNYFSTRKNS [L28M] has an abundance fitness of -0.067 ± 0.11. For TLEEDLKKLQLSEFFDIFEKEKVDKEALDLCTDRDLQEIGIPLGPRKKILNYFSTRKNS [A29D], the abundance fitness was -0.264 ± 0.12. TLEEDLKKLQLSEFFDIFEKEKVDKEALRLCTDRDLQEIGIPLGPRKKILNYFSTRKNS [A29R] gave an abundance fitness of 0.011 ± 0.064. With TLEEDLKKLQLSEFFDIFEKEKVDKEALALCTDRDLQEIGIPLDPRKKILNYFSTRKNS [G44D] the abundance fitness was 0.342 ± 0.058. Work on TLEEDLKKLQLSEFFDIFEKEKVDKEALALCTDRDLQEIGIPLVPRKKILNYFSTRKNS [G44V] yielded an abundance fitness of 0.375 ± 0.049. TLEEDLKKLQLSEFFDIFEKEKVDKEALALCTDRDLQEIGIPLNPRKKILNYFSTRKNS [G44N] gave an abundance fitness of 0.041 ± 0.058. TLEEDLKKLQLPEFFDIFEKEKVDKEALALCTDRDLQEIGIPLGPRKKILNYFSTRKNS [S12P] showed an abundance fitness of -0.301 ± 0.066. With TLEEDLEKLQLSEFFDIFEKEKVDKEALALCTDRDLQEIGIPLGPRKKILNYFSTRKNS [K7E] the abundance fitness was -0.017 ± 0.14. TLEEDLKKLQLSEFFDIFEKEKVDKEALALCTDRDLQEIGIPLGPRKKILNYFSTRKNV [S59V] showed an abundance fitness of -0.153 ± 0.12. For TLEEDLKKLQLSEFFDIFEKEKVIKEALALCTDRDLQEIGIPLGPRKKILNYFSTRKNS [D24I], the abundance fitness was -1.2 ± 0.37. For TLEEDLKKLQLSEFFDIFEKEKVEKEALALCTDRDLQEIGIPLGPRKKILNYFSTRKNS [D24E], the abundance fitness was -0.023 ± 0.12. Variant TLFEDLKKLQLSEFFDIFEKEKVDKEALALCTDRDLQEIGIPLGPRKKILNYFSTRKNS [E3F] has an abundance fitness of -0.209 ± 0.1. For TLEEDLKKLQLSELFDIFEKEKVDKEALALCTDRDLQEIGIPLGPRKKILNYFSTRKNS [F14L], the abundance fitness was 0 ± 0.06. With TLEEDLKKLFLSEFFDIFEKEKVDKEALALCTDRDLQEIGIPLGPRKKILNYFSTRKNS [Q10F] the abundance fitness was -0.421 ± 0.13. TLEEDLKKLQLSEFFDIFEKEKEDKEALALCTDRDLQEIGIPLGPRKKILNYFSTRKNS [V23E] showed an abundance fitness of -0.434 ± 0.091. For TLEEDLKKLQLSEFFDIFEKEKVDKEALALTTDRDLQEIGIPLGPRKKILNYFSTRKNS [C31T], the abundance fitness was 0.145 ± 0.1. Work on TLEEDLKKLQLSEFFDIFEKEKVDKEALALPTDRDLQEIGIPLGPRKKILNYFSTRKNS [C31P] yielded an abundance fitness of -0.196 ± 0.11. For TLEEDLKKLQLSEFFDIFEKWKVDKEALALCTDRDLQEIGIPLGPRKKILNYFSTRKNS [E21W], the abundance fitness was 0.299 ± 0.072. Variant TLEEDLKKLQLSEFFDIFEKMKVDKEALALCTDRDLQEIGIPLGPRKKILNYFSTRKNS [E21M] has an abundance fitness of 0.86 ± 0.084.
